T1: wild-type MBP-CR2 SCR1-2 (human), P20023
T1 chain: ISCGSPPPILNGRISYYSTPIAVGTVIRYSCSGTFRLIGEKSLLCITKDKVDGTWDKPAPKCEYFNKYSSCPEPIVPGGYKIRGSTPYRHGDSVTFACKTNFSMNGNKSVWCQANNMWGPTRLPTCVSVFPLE

B1: peptide EBV gp350 cp1 (peptide)
peptide: CSEGSLKGC
modifications: not checked
B2: peptide C3dp1 (peptide)
peptide: APQHLSSQYSRT
modifications: not checked
B3: control peptide (peptide)
peptide: APAHLSSQ
modifications: not checked
B4: peptide C3dp2 (peptide)
peptide: ISTSNPRHHSTA
modifications: not checked
B5: peptide C3dcp1.1 (peptide)
peptide: DPKNHVH
modifications: not checked
B6: peptide C3dp2.2 (peptide)
peptide: ISTSNPRH
modifications: not checked
B7: peptide C3dp1.2 (peptide)
peptide: TRSYQSSLHQPA
modifications: not checked
B8: peptide C3dp1.1 (peptide)
peptide: APQALSSQYSRT
modifications: not checked
B9: peptide C3dp2.3 (peptide)
peptide: IATANPRHHSTA
modifications: not checked
B10: peptide C3dp1.3 (peptide)
peptide: APQHLSSQ
modifications: not checked
B11: peptide C3dp2.1 (peptide)
peptide: ISTSNPRAASTA
modifications: not checked

One experiment has as its target T1, wild-type MBP-CR2 SCR1-2 (human), P20023.
Test: not given
B1 registered an IC50 of 150 µM.

For a further experiment the target is unchanged. Kind of experiment: competition ELISA: C3d on plate, MBP-CR2 SCR1-2 with increasing peptide, ⅓×PBS.
B2 had a 50% inhibitory concentration (IC50) of 100 µM.

As to B3, the concentration for half-maximal inhibition (IC50) was determined as 700 µM. Molecule B4 registered a half-maximal inhibitory concentration (IC50) of 450 µM. As to B5, the half-maximal inhibitory concentration (IC50) is 95 µM. For B6, the IC50 came out at 190 µM. B7 showed a half-maximal inhibitory concentration (IC50) of 70 µM. Against the preceding molecule, the IC50 is about 2.7-fold lower. On to B8, for which the IC50 is 70 µM. The molecule B9 gave a half-maximal inhibitory concentration (IC50) of 160 µM. As to B10, the half-inhibitory concentration (IC50) was 40 µM.

With B11, the 50% inhibitory concentration (IC50) was found to be 150 µM.

By IC50 is commonly meant the concentration needed to halve the response being measured. Low values mean greater potency in that assay, high ones weaker potency in that assay.

Values taken from patent publication US20120108492A1, “LIGAND-SPECIFIC NON-ANTIBODY COMPOUNDS THAT INHIBIT CR2 ACTIVATION AND METHODS OF USE THEREOF” (The Regents of the University of Colorado, priority 2008, published 2012).
